According to publication PMC2957469:

What was measured:
[1] = biological target: JCV VP1 pentamer (amino acids 22-289) S266N/S268N, His-tagged (JC polyomavirus (JCV), Mad-1 strain); experiment: SEC
[2] = biological target: JCV VP1 pentamer (amino acids 22-289) N123A, His-tagged (JC polyomavirus (JCV), Mad-1 strain); experiment: SEC
[3] = biological target: JCV VP1 pentamer (amino acids 22-289, Mad-1 strain), His-tagged, wild type (JC polyomavirus (JCV), Mad-1 strain); experiment: SEC
[4] = biological target: JCV VP1 pentamer (amino acids 22-289) A126Q, His-tagged (JC polyomavirus (JCV), Mad-1 strain); experiment: SEC
[5] = biological target: JCV VP1 pentamer (amino acids 22-289) A126Y, His-tagged (JC polyomavirus (JCV), Mad-1 strain); experiment: SEC
[6] = biological target: JCV VP1 pentamer (amino acids 22-289) S266A/S268A, His-tagged (JC polyomavirus (JCV), Mad-1 strain); experiment: SEC
[7] = biological target: JCV VP1 pentamer (amino acids 22-289, Mad-1 strain), His-tag removed, as crystallized (JC polyomavirus (JCV), Mad-1 strain); experiment: crystal structure
[8] = biological target: JCV VP1 pentamer (amino acids 22-289) R265A, His-tagged (JC polyomavirus (JCV), Mad-1 strain); experiment: SEC
[9] = biological target: JCV VP1 pentamer (amino acids 22-289) L54Y, His-tagged (JC polyomavirus (JCV), Mad-1 strain); experiment: SEC

JCV VP1 pentamer (amino acids 22-289) S266N/S268N, His-tagged (domain or fragment)
stoichiometry N [1]: 5

JCV VP1 pentamer (amino acids 22-289) N123A, His-tagged (domain or fragment)
stoichiometry N [2]: 5

JCV VP1 pentamer (amino acids 22-289, Mad-1 strain), His-tagged, wild type (domain or fragment)
stoichiometry N [3]: 5

JCV VP1 pentamer (amino acids 22-289) A126Q, His-tagged (domain or fragment)
stoichiometry N [4]: 5

JCV VP1 pentamer (amino acids 22-289) A126Y, His-tagged (domain or fragment)
stoichiometry N [5]: 5

JCV VP1 pentamer (amino acids 22-289) S266A/S268A, His-tagged (domain or fragment)
stoichiometry N [6]: 5

JCV VP1 pentamer (amino acids 22-289, Mad-1 strain), His-tag removed, as crystallized (domain or fragment)
stoichiometry N [7]: 5

JCV VP1 pentamer (amino acids 22-289) R265A, His-tagged (domain or fragment)
stoichiometry N [8]: 5

JCV VP1 pentamer (amino acids 22-289) L54Y, His-tagged (domain or fragment)
stoichiometry N [9]: 5
